Experiment [1] addresses T1, recombinant human BCMA-hFc (human, UniProt Q02223 1-54, biotinylated in the kinetic exclusion assay of paragraph 546).
T1 construct: also called rhBCMA hFc; recombinant human BCMA fusion protein
T1 sequence: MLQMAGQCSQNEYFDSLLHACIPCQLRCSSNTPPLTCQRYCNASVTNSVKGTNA
Put plainly: Biacore-based assay (SPR). (In general: SPR reads the build-up and loss of mass on a sensor chip optically.)

Experiment [2] concerns the target T2, human B-cell maturation antigen (BCMA) on cells (human, UniProt Q02223 1-184).
T2 construct: Recombinant on HEK293 or K562 cells, or endogenous on cell lines (H929, RPMI 8226, OPM2, MM1S, Daudi); also called hBCMA; huBCMA
T2 chain: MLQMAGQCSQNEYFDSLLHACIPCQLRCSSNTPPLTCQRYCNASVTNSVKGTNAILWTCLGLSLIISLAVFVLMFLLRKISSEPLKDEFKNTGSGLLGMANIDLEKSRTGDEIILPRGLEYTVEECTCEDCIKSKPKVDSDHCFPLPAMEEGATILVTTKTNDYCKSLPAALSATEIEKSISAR
Put plainly: membrane proteome array on transfected HEK293 cells (Retrogenix).

Experiment [3] addresses T1, recombinant human BCMA-hFc. Put plainly: KinExA kinetic exclusion assay, CAR-expressing Jurkat cells titrated into 20 nM or 1 nM biotinylated rhBCMA hFc. In general terms: A kinetic exclusion assay measures how much of one partner remains free in solution.
Experiment [4] deals with T3, BCMA-Fc (soluble human BCMA fused at its C-terminus to an Fc region of IgG) (human, UniProt Q02223 1-54).
T3 construct: also called hBCMA-Fc; hBMCA-Fc
T3 sequence: T1 sequence
Put plainly: flow cytometry, T cells transduced with O/SSE construct, CD4 gate, recombinant BCMA-Fc (rBCMA) staining against surrogate marker. The protocol: (§1) Lentiviral constructs containing anti-BCMA CAR-encoding polynucleotides with starting and optimized sequences, respectively, as described in Example 3, were transduced into T cells and transduced cells were analyzed for transduction (based on expression of a surrogate marker) and for CAR expression based on binding to recombinant BCMA-Fc fusion protein by flow cytometry.
(A flow cytometer gives signals particle by particle.)

In experiment [5] the target is T3, BCMA-Fc (soluble human BCMA fused at …). Put plainly: flow cytometry, T cells transduced with O/SSE construct, CD8 gate, recombinant BCMA-Fc (rBCMA) staining against surrogate marker. The method, then: as §1
For experiment [6] the target is unchanged. Put plainly: flow cytometry, T cells transduced with Non-SSE construct, CD4 gate, recombinant BCMA-Fc (rBCMA) staining against surrogate marker. The protocol:
as §1

The target is the same in experiment [7]. Put plainly: flow cytometry, T cells transduced with Non-SSE construct, CD8 gate, recombinant BCMA-Fc (rBCMA) staining against surrogate marker. The protocol: as §1
For experiment [8], the target named is T1, recombinant human BCMA-hFc. Put plainly: kinetics exclusion assay, CAR expressed on a Jurkat T cell line, rhBCMA hFc in solution; CAR on Jurkat cells, kinetics exclusion assay (not the scFv-Fc by Biacore). The method, then: A CAR with a BCMA-55-derived scFv binding domain, a modified IgG-derived CH2-CH3-hinge spacer, a CD28 transmembrane domain, and 41BB and CD3zeta endodomain, was expressed in a Jurkat T cell line. Kinetics of binding by the CAR to recombinant human BCMA-hFc (rhBCMA hFc) was assessed using a kinetics exclusion assay. Affinity of binding of an Fc fusion protein containing the scFv portion of the CAR (scFv-Fc) to recombinant human BCMA fusion protein was also assessed using a Biacore-based assay.

B1: BCMA-55 scFv-Fc fusion protein (Fc fusion, not shown: a dimerising Fc or GST)
chain: QSALTQPASVSASPGQSIAISCTGTSSDVGWYQQHPGKAPKLMIYEDSKRPSGVSNRFSGSKSGNTASLTISGLQAEDEADYYCSSNTRSSTLVFGGGTKLTVLGSRGGGGSGGGGSGGGGSLEMAEVQLVQSGAEMKKPGASLKLSCKASGYTFIDYYVYWMRQAPGQGLESMGWINPNSGGTNYAQKFQGRVTMTRDTSISTAYMELSRLRSDDTAMYYCARSQRDGYMDYWGQGTLVTVSS
notes: also called BCMA-55-Fc
For the molecule B1, the Kd (in general, a measure of binding affinity in units of concentration) in experiment [1] was roughly 10 nM. For the same molecule, in experiment [2], the binding result is recorded as “binds”.

B2: BCMA-55-LS CAR (other)
chain: QSALTQPASVSASPGQSIAISCTGTSSDVGWYQQHPGKAPKLMIYEDSKRPSGVSNRFSGSKSGNTASLTISGLQAEDEADYYCSSNTRSSTLVFGGGTKLTVLGSRGGGGSGGGGSGGGGSLEMAEVQLVQSGAEMKKPGASLKLSCKASGYTFIDYYVYWMRQAPGQGLESMGWINPNSGGTNYAQKFQGRVTMTRDTSISTAYMELSRLRSDDTAMYYCARSQRDGYMDYWGQGTLVTVSSESKYGPPCPPCPAPPVAGPSVFLFPPKPKDTLMISRTPEVTCVVVDVSQEDPEVQFNWYVDGVEVHNAKTKPREEQFQSTYRVVSVLTVLHQDWLNGKEYKCKVSNKGLPSSIEKTISKAKGQPREPQVYTLPPSQEEMTKNQVSLTCLVKGFYPSDIAVEWESNGQPENNYKTTPPVLDSDGSFFLYSRLTVDKSRWQEGNVFSCSVMHEALHNHYTQKSLSLSLGKMFWVLVVVGGVLACYSLLVTVAFIIFWVKRGRKKLLYIFKQPFMRPVQTTQEEDGCSCRFPEEEEGGCELRVKFSRSADAPAYQQGQNQLYNELNLGRREEYDVLDKRRGRDPEMGGKPRRKNPQEGLYNELQKDKMAEAYSEIGMKGERRRGKGHDGLYQGLSTATKDTYDALHMQALPPR
notes: Chimeric antigen receptor on T cells or Jurkat cells; also called BCMA-55-LS-O/SSE CAR; BCMA-55-LS CAR O/SSE
Take B2: the Kd in experiment [3] is roughly 1.46 nM; in experiment [8] it was roughly 1 nM. Further, the “% of cells in Q1 (rBCMA+ marker-)” value is 1.9% in experiment [4], 2.47% in experiment [5], 8.66% in experiment [6] and 7.95% in experiment [7]. For the same molecule, the “% of cells in Q3 (rBCMA- marker+)” value amounted to 4.89% in experiment [4], 6.39% in experiment [5], 6.35% in experiment [6] and 6.75% in experiment [7]. The “% of cells in Q4 (rBCMA- marker-)” value worked out at 43% in experiment [4], 47.8% in experiment [5], 40.9% in experiment [6] and 48.8% in experiment [7].

For the origin of these results see US20260109774A1 (JUNO THERAPEUTICS, published 2026).
